Blank lines part the entries; values can stand above or below the binder they belong to.
Target: T1, Adenomatosis Polyposis Coli (APC) (UniProt P25054 2-2843, limits assumed)
T1 construct: Stands for 'APC' where the sentence names no fragment; also called tumor suppressor protein APC
Test: yeast 2-hybrid, partial pieces of conductin

T1 sequence (P25054 2-2843 limits assumed): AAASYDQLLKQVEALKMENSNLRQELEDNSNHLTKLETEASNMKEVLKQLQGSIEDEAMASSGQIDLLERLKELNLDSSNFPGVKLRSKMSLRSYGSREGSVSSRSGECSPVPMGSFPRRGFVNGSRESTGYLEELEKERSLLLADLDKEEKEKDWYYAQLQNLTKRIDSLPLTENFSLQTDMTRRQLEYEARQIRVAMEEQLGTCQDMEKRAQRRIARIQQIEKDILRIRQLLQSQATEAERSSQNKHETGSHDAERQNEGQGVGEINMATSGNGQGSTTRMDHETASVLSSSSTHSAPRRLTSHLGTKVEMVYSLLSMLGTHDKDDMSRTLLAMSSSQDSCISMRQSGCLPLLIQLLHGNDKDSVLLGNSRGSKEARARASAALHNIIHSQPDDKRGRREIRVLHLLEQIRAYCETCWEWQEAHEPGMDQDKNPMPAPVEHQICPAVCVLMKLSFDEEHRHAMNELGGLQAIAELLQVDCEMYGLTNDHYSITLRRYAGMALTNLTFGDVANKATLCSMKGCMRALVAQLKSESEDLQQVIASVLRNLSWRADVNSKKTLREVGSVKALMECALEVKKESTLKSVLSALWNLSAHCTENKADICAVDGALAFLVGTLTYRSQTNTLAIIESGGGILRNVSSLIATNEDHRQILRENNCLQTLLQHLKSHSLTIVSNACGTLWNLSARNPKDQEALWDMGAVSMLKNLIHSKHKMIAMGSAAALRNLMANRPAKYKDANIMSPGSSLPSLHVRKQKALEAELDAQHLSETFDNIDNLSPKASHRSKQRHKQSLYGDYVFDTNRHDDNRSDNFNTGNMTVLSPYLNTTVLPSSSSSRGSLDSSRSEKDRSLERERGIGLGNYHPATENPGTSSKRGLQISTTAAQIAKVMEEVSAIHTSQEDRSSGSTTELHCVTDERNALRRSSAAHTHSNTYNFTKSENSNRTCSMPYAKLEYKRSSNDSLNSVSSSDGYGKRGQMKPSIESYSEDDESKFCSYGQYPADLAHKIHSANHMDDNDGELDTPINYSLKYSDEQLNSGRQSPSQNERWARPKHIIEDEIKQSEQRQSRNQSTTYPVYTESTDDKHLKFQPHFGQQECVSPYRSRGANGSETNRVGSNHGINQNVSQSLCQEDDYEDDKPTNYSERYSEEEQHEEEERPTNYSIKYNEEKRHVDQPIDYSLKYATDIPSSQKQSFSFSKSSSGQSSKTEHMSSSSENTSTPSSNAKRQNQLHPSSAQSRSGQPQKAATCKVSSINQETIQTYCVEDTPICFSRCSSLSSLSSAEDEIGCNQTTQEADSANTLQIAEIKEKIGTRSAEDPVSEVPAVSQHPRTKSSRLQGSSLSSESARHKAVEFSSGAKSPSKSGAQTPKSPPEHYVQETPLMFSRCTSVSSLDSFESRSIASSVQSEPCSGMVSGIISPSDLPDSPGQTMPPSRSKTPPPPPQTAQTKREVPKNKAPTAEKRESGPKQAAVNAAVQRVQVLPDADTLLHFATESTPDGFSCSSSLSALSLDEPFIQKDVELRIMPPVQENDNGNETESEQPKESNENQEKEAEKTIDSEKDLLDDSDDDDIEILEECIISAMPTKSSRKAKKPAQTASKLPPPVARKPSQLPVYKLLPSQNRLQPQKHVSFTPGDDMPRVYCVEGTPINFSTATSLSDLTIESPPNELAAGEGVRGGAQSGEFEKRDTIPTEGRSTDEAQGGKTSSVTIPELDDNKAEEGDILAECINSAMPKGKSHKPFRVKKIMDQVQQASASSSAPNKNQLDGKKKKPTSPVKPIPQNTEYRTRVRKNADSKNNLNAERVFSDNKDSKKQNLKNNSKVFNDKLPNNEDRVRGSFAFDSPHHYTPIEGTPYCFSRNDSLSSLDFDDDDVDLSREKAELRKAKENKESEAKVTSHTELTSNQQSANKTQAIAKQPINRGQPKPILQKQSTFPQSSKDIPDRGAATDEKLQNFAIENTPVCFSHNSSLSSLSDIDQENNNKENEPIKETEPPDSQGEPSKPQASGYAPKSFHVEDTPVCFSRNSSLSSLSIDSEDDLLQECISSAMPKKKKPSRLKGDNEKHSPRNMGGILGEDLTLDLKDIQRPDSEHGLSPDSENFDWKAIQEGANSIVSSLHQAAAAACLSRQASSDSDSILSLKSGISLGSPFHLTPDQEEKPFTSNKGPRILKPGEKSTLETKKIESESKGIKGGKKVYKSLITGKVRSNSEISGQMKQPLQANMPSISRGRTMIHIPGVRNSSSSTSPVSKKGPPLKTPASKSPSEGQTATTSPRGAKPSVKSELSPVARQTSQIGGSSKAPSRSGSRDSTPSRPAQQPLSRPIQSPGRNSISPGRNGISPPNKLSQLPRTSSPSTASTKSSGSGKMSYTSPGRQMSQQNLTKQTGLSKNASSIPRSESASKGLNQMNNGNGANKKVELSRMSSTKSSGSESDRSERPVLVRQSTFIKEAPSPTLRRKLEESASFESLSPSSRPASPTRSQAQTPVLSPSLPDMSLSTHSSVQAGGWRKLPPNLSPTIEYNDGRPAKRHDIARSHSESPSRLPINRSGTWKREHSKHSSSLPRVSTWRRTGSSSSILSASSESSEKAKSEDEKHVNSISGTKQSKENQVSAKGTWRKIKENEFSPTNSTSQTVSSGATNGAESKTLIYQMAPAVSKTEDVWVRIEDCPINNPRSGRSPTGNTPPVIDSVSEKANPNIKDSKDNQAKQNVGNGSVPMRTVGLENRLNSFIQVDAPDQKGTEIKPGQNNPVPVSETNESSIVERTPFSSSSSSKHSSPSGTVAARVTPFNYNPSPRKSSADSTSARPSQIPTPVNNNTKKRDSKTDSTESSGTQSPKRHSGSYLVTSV

- binding result: no binding
B1: conductin disheveled homology region (amino acids 783-833) (other)
chain: LTLGHFKEQLSKKGNYRYYFKKASDEFACGAVFEEIWDDETVLPMYEGRIL

- binding result: no binding
B2: conductin GSK 3b-binding domain (amino acids 343-396) (other)
chain: ANGQVSLPHFPRTHRLPKEMTPVEPAAFAAELISRLEKLKLELESRHSLEERLQ
notes: also called GSK BD

- binding result: no binding
B3: conductin β-catenine binding domain (amino acids 397-465) (other)
chain: QIREDEEKEGSEQALSSRDGAPVQHPLALLPSGSYEEDPQTILDDHLSRVLKTPGCQSPGVGRYSPRSR
notes: also called b-BD
